Measurements reported in the supplement of paper PMC10567573.

B1: ZBED3 (parent)
chain: GPGFHAGTSALWRHLRSAHRRELE

Variants of: B1
Experiment: protein stability index of a GFP-peptide fusion (GPS, HEK-293T) (PSI 1-6); higher = more stable
Details: c terminus: a fixed tail appended
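Note: lentivirally expressed fusions sorted by FACS into six bins by GFP to DsRed ratio, PSI derived from sequencing read proportions per bin multiplied by bin number.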

Variant	protein stability index
GPGFHAGTSALLRHLRSAHRRELE [W12L]	2.24
GPGFHAGTSALSRHLRSAHRRELE [W12S]	2.61
GPGFHAGTSALWRHLRSAERRELE [H19E]	2.21
GPGFHAGTSALWRHLRSAGRRELE [H19G]	2.14
GPGFHAGTSALWRHLRSAARRELE [H19A]	2.74
GPGFHAGTSALWRHLRSAPRRELE [H19P]	2.11
GPGFHAGTSALWRHLRSAVRRELE [H19V]	3.03
GPGFHAGTSALWRHLRSAQRRELE [H19Q]	2.2
GPGFHAGTSALWRHLRSAIRRELE [H19I]	2.3
GPGFHAGTSALWRHLRSAKRRELE [H19K]	2.54
GPGFHAGTSALWRHLRSAWRRELE [H19W]	2.14
GPGFHAGTSALWRHLRSANRRELE [H19N]	1.58
GPGFHAGTSALWRHLRSAYRRELE [H19Y]	2.5
GPGFHAGTSALWRHLRSATRRELE [H19T]	2.14
GPGFHAGTSALWRHLRSASRRELE [H19S]	2.29
GPGFHAGTSALWRHLRSARRRELE [H19R]	2.68
GPGFHAGTSALWRHLRSAFRRELE [H19F]	2.84
GPGFHAGTSALWRHLRSALRRELE [H19L]	2.53
GPGFHAGTSALWRHLRSACRRELE [H19C]	2.7
GPGFHAGTSALWRHLRSADRRELE [H19D]	2.03
GPGFHAGTSALWRHLRSAMRRELE [H19M]	1.73
GPGFHAGTSAPWRHLRSAHRRELE [L11P]	2.23
GPGFHAGTSACWRHLRSAHRRELE [L11C]	2.41
GPGFHAGTSAWWRHLRSAHRRELE [L11W]	2.85

Variant	protein stability index
GPGFHAGTSAIWRHLRSAHRRELE [L11I]	2.32
GPGFHAGTSAMWRHLRSAHRRELE [L11M]	2.64
GPGFHAGTSAFWRHLRSAHRRELE [L11F]	1.7
GPGFHAGTSARWRHLRSAHRRELE [L11R]	3.19
GPGFHAGTSASWRHLRSAHRRELE [L11S]	2.03
GPGFHAGTSAQWRHLRSAHRRELE [L11Q]	2.54
GPGFHAGTSADWRHLRSAHRRELE [L11D]	3.33
GPGFHAGTSATWRHLRSAHRRELE [L11T]	2.16
GPGFHAGTSAEWRHLRSAHRRELE [L11E]	2.52
GPGFHAGTSAKWRHLRSAHRRELE [L11K]	3.32
GPGFHAGTSAYWRHLRSAHRRELE [L11Y]	3.19
GPGFHAGTSANWRHLRSAHRRELE [L11N]	2.3
GPGFHAGTSAAWRHLRSAHRRELE [L11A]	1.71
GPGFHAGTSAGWRHLRSAHRRELE [L11G]	1.74
GPGFHAGTSAHWRHLRSAHRRELE [L11H]	3.28
GPGFHAGTSAVWRHLRSAHRRELE [L11V]	1.99
GPGFHAGTSALWPHLRSAHRRELE [R13P]	2.12
GPGFHAGTSALWNHLRSAHRRELE [R13N]	2.13
GPGFHAGTSALWGHLRSAHRRELE [R13G]	1.81
GPGFHAGTSALWFHLRSAHRRELE [R13F]	1.73
GPGFHAGTSALWHHLRSAHRRELE [R13H]	1.98
GPGFHAGTSALWLHLRSAHRRELE [R13L]	1.79
GPGFHAGTSALWKHLRSAHRRELE [R13K]	2.08
GPGFHAGTSALWTHLRSAHRRELE [R13T]	1.99

Variant	protein stability index
GPGFHAGTSALWCHLRSAHRRELE [R13C]	1.47
GPGFHAGTSALWAHLRSAHRRELE [R13A]	2.8
GPGFHAGTSALWQHLRSAHRRELE [R13Q]	2.72
GPGFHAGTSALWMHLRSAHRRELE [R13M]	1.99
GPGFHAGTSALWSHLRSAHRRELE [R13S]	1.36
GPGFHAGTSALWYHLRSAHRRELE [R13Y]	2.1
GPGFHAGTSALWWHLRSAHRRELE [R13W]	1.93
GPGFHAGTSALWIHLRSAHRRELE [R13I]	1.88
GPGFHAGTSALWVHLRSAHRRELE [R13V]	1.88
GPGFHAGTSALWEHLRSAHRRELE [R13E]	2.14
GPGFHAGTSALWRHLRSAHCRELE [R20C]	2.27
GPGFHAGTSALWRHLRSAHQRELE [R20Q]	2.31
GPGFHAGTSALWRHLRSAHKRELE [R20K]	2.54
GPGFHAGTSALWRHLRSAHSRELE [R20S]	1.86
GPGFHAGTSALWRHLRSAHDRELE [R20D]	2.01
GPGFHAGTSALWRHLRSAHNRELE [R20N]	1.4
GPGFHAGTSALWRHLRSAHIRELE [R20I]	1.74
GPGFHAGTSALWRHLRSAHPRELE [R20P]	2.54
GPGFHAGTSALWRHLRSAHARELE [R20A]	1.82
GPGFHAGTSALWRHLRSAHLRELE [R20L]	1.59
GPGFHAGTSALWRHLRSAHTRELE [R20T]	1.92
GPGFHAGTSALWRHLRSAHHRELE [R20H]	1.37
GPGFHAGTSALWRHLRSAHMRELE [R20M]	2.17
GPGFHAGTSALWRHLRSAHGRELE [R20G]	2.23

Variant	protein stability index
GPGFHAGTSALWRHLRSAHFRELE [R20F]	2.36
GPGFHAGTSALWRHLRSAHVRELE [R20V]	2.06
GPGFHAGTSALWRHLRSAHERELE [R20E]	2.08
GPGFHAGTSALWRHLRPAHRRELE [S17P]	1.9
GPGFHAGTSALWRHLRHAHRRELE [S17H]	1.85
GPGFHAGTSALWRHLRTAHRRELE [S17T]	2.65
GPGFHAGTSALWRHLRKAHRRELE [S17K]	2.51
GPGFHAGTSALWRHLRVAHRRELE [S17V]	1.94
GPGFHAGTSALWRHLRAAHRRELE [S17A]	2.14
GPGFHAGTSALWRHLRMAHRRELE [S17M]	2.25
GPGFHAGTSALWRHLRIAHRRELE [S17I]	2.17
GPGFHAGTSALWRHLRLAHRRELE [S17L]	3.44
GPGFHAGTSALWRHLRDAHRRELE [S17D]	2.9
GPGFHAGTSALWRHLRQAHRRELE [S17Q]	2.03
GPGFHAGTSALWRHLRRAHRRELE [S17R]	2.42
GPGFHAGTSALWRHLREAHRRELE [S17E]	2.78
GPGFHAGTSALWRHLRFAHRRELE [S17F]	2.25
GPGFHAGTSALWRHLRGAHRRELE [S17G]	2.6
GPGFHAGTSALWRHLRNAHRRELE [S17N]	1.69
GPGFHAGTSALWRHLRCAHRRELE [S17C]	1.56
GPGFHAGTSALWRHLRYAHRRELE [S17Y]	2.38
GPGFHAGTSALWRHLRWAHRRELE [S17W]	3.17
